This assay addresses VZV glycoprotein B H527P on extracellular vesicles (varicella-zoster virus (VZV)) (UniProt P09257). Briefly: cryo-EM structure; cryo-electron tomography with subtomogram averaging (EMAN2) of gB[H527P] in the membranes of extracellular vesicles from BHK-21 cells; C3 symmetry applied; two classes by focused classification.

The values below come from publication PMC10693595 (2023).

In general, stoichiometry N refers to the number of molecules, sites or subunits per partner or assembly.

“VZV glycoprotein B H527P on extracellular vesicles (from UniProt P09257 72-931) (natural protein)” displayed a stoichiometry N of 3.
